This passage reports Kd and koff results from publication PMC3548456.

The experiment addresses CI-MPR domains 10-13, receptor construct 1288 (wild-type IGF-II binding domain) (human) (UniProt P11717). Description: SPR.

CI-MPR domains 10-13, receptor construct 1288 (wild-type IGF-II binding domain) (human), sequence (P11717 1363-1988): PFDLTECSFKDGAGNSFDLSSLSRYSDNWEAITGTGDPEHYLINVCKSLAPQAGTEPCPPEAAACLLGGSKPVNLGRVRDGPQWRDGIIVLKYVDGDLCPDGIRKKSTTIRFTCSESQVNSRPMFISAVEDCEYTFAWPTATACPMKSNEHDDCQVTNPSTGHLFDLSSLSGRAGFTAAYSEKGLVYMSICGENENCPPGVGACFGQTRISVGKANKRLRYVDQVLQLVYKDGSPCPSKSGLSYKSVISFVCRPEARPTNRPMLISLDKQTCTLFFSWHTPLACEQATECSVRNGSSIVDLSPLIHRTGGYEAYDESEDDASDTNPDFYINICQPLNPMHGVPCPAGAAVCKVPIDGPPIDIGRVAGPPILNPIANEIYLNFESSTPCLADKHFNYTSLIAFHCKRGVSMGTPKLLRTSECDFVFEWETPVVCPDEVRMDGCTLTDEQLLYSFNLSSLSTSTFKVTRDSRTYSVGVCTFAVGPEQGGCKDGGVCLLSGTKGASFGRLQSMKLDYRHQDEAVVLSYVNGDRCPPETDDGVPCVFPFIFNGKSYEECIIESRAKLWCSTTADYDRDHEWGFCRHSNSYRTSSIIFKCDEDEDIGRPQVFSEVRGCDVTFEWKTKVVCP

For “GILT-tagged GAA (BMN 701) (from UniProt P01344 32-91; P10253 70-952) (enzyme)”, the Kd is 0.021 µM and the koff stood at 0.0058 s⁻¹.

full-length recombinant IGF-II (ligand): the Kd stood at 0.0088 µM and the koff is 0.0034 s⁻¹.

The term Kd denotes the equilibrium constant for the complex coming apart. Low values mean a tighter complex, high ones a looser complex. As a reminder, the koff is the first-order rate constant of dissociation. The low end stands for a long-lived complex, the high end for a short-lived complex.
